One substance from patent US20250295809A1 can be followed below.

The target in this assay is HER2 on cancer cell lines (BT-474, SK-BR-3, MDA-MB-361-luc) (human) (UniProt P04626). The assay is described as follows: cell-based or functional assay.

Turning to ZW-25 bispecific antibody, the Emax, BT-474 cell proliferation (CellTiter-Glo 2.0, 4 days) worked out at 41.5%; the IC50, BT-474 cell proliferation (CellTiter-Glo 2.0, 4 days) was determined as 0.125 µg/mL; the IC50, SK-BR-3 cell proliferation (CellTiter-Glo 2.0, 4 days) was determined as 0.431 µg/mL.
